Source: patent US20260201347A1, “ARTIFICIAL BIFUNCTIONAL ENZYME COMPRISING A MYELOPEROXIDASE ACTIVITY AND A GLUCOSE OXIDASE ACTIVITY AND APPLICATIONS THEREOF” (UNIVERSITÉ DE BORDEAUX, priority 2022, published 2026)

Legend:
Format in all cases: biochemical, Rhodopirellula baltica / Penicillium amagasakiens
Conditions in all cases: fixed NaCl 20 mM, pH7.5, pH 7.5
[1] = substrate: OC[C@H]1OC(O)[C@H](O)[C@@H](O)[C@@H]1O; experiment: Coupled active sites, HOCl production from glucose, APF assay (Table 9), linker LEKRPEAEA
Procedure: (§1) Each experiment was performed in triplicate.
(§2) The activity of the two active sites was then assessed in conjunction to each other (FIG. 1).
(§3) Briefly, the aim was to measure the production of HOCl from glucose and NaCl as respective substrates of the enzymes, using the APF probe. Two types of kinetics were performed: • i) kinetics at various concentrations of glucose and a fixed concentration of NaCl, and • ii) kinetics at various concentration of NaCl and a fixed concentration of glucose.

[2] = substrate: OC[C@H]1OC(O)[C@H](O)[C@@H](O)[C@@H]1O; experiment: Coupled active sites, HOCl production from glucose, APF assay (Table 9), linker LEGGEAEA
Procedure: as §1, §2, §3

[3] = substrate: OC[C@H]1OC(O)[C@H](O)[C@@H](O)[C@@H]1O; experiment: Coupled active sites, HOCl production from glucose, APF assay (Table 9), linker GGGGGGGG
Procedure: as §1, §2, §3

B1: RbMPO-LEKRPEAEA-GOx chimera (Rhodopirellula baltica myeloperoxidase, SEQ ID NO: 10; linker SEQ ID NO: 8; Penicillium amagasakiens glucose oxidase, SEQ ID NO: … (protein)
chain: MLFWSKRTRKHPGRKRRRLRSEQLESRQLLAADFGGYRHNIYDAEDVNDDGRVSAIDALLVINAMTSETSRDENVFTDVNGDGRRSALDALRVINRIERGDVFPIDTSGDEDLNTLLPEMPSEVRSIDGSGNNPNDHLWGSVGQRLIRMAPAAYGDGISTLAGANRPSAREVSNVLSAMNTSQVLNDRGLSAFVYVWGQFIDHDLGLTESDEHGEAIDISVPEGDLWFDPMGSGEAVIPMTRTPIADGTGTSVGNPAQQFNQITAFIDGSMVYGSDAATAERLRTFAGGRLAISDNGLLPMDESGMVIAGDVRASENVGLTAIQTLFVREHNRLADEIFAADPEATDEEIYQRARLVVASLIQSITYNEFLPALLGQRAMDSYRGYDASVNPGIANEFSTAAFRLGHSTLRDEVGFMSNDGRESKDEMELKDAFFHASMLEETGIDSLLKFDASVQAQEIDLAVVDSLRNFLFGPPGAGGLDLVAMNIQRGRDHGLSDYNTTRQAYGLDRVETFDQITGDVELQQKLASLYGTVDNIDLWVGLMAEDHQHDASVGELTGLIIADQFQRTRDGDRFFYKNVLTDSEVESIERSTLADLIERNTSVDGLQENVFFMQVELRGRVILASSIPPNTMPSEVREEEIRGVSGMAIELIDASGKLVDSTVSDQHGNYRFRALSETGDYQVRLSESGEAMDVLVAHGAERIRGLDFIVLALEKRPEAEAYLPAQQIDVQSSLLSDPSKVAGKTYDYIIAGGGLTGLTVAAKLTENPKIKVLVIEKGFYESNDGAIIEDPNAYGQIFGTTVDQNYLTVPLINNRTNNIKAGKGLGGSTLINGDSWTRPDKVQIDSWEKVFGMEGWNWDNMFEYMKKAEAARTPTAAQLAAGHSFNATCHGTNGTVQSGARDNGQPWSPIMKALMNTVSALGVPVQQDFLCGHPRGVSMIMNNLDENQVRVDAARAWLLPNYQRSNLEILTGQMVGKVLFKQTASGPQAVGVNFGTNKAVNFDVFAKHEVLLAAGSAISPLILEYSGIGLKSVLDQANVTQLLDLPVGINMQDQTTTTVSSRASSAGAGQGQAVFFANFTETFGDYAPQARDLLNTKLDQWAEETVARGGFHNVTALKVQYENYRNWLLDEDVAFAELFMDTEGKINFDLWDLIPFTRGSVHILSSDPYLWQFANDPKFFLNEFDLLGQAAASKLARDLTSQGAMKEYFAGETLPGYNLVQNATLSQWSDYVLQNFRPNWHAVSSCSMMSRELGGVVDATAKVYGTQGLRVIDGSIPPTQVSSHVMTIFYGMALKVADAILDDYAKSA
notes: 6His (in the pET21a vector behind the XhoI site); made in house; host or cells: E. coli BL21Star (DE3)
[1]; other: dimer/monomer
  Km: 2.16 ± 1.48 mM
  kcat: 0.000642 s⁻¹
  kcat/Km: 0.298 ± 0.235 M⁻¹ s⁻¹
[1]; other: excluded
  Km: 22.6 ± 6.5 mM
  kcat: 0.000365 s⁻¹
  kcat/Km: 0.016 ± 0.005 M⁻¹ s⁻¹
[1]; other: trimer
  Km: 1.056 ± 0.496 mM
  kcat: 0.000156 s⁻¹
  kcat/Km: 0.148 ± 0.081 M⁻¹ s⁻¹

B2: RbMPO-LEGGEAEA-GOx chimera (Rhodopirellula baltica myeloperoxidase, SEQ ID NO: 10; linker SEQ ID NO: 4; Penicillium amagasakiens glucose oxidase, SEQ ID NO: … (protein)
chain: MLFWSKRTRKHPGRKRRRLRSEQLESRQLLAADFGGYRHNIYDAEDVNDDGRVSAIDALLVINAMTSETSRDENVFTDVNGDGRRSALDALRVINRIERGDVFPIDTSGDEDLNTLLPEMPSEVRSIDGSGNNPNDHLWGSVGQRLIRMAPAAYGDGISTLAGANRPSAREVSNVLSAMNTSQVLNDRGLSAFVYVWGQFIDHDLGLTESDEHGEAIDISVPEGDLWFDPMGSGEAVIPMTRTPIADGTGTSVGNPAQQFNQITAFIDGSMVYGSDAATAERLRTFAGGRLAISDNGLLPMDESGMVIAGDVRASENVGLTAIQTLFVREHNRLADEIFAADPEATDEEIYQRARLVVASLIQSITYNEFLPALLGQRAMDSYRGYDASVNPGIANEFSTAAFRLGHSTLRDEVGFMSNDGRESKDEMELKDAFFHASMLEETGIDSLLKFDASVQAQEIDLAVVDSLRNFLFGPPGAGGLDLVAMNIQRGRDHGLSDYNTTRQAYGLDRVETFDQITGDVELQQKLASLYGTVDNIDLWVGLMAEDHQHDASVGELTGLIIADQFQRTRDGDRFFYKNVLTDSEVESIERSTLADLIERNTSVDGLQENVFFMQVELRGRVILASSIPPNTMPSEVREEEIRGVSGMAIELIDASGKLVDSTVSDQHGNYRFRALSETGDYQVRLSESGEAMDVLVAHGAERIRGLDFIVLALEGGEAEAYLPAQQIDVQSSLLSDPSKVAGKTYDYIIAGGGLTGLTVAAKLTENPKIKVLVIEKGFYESNDGAIIEDPNAYGQIFGTTVDQNYLTVPLINNRTNNIKAGKGLGGSTLINGDSWTRPDKVQIDSWEKVFGMEGWNWDNMFEYMKKAEAARTPTAAQLAAGHSFNATCHGTNGTVQSGARDNGQPWSPIMKALMNTVSALGVPVQQDFLCGHPRGVSMIMNNLDENQVRVDAARAWLLPNYQRSNLEILTGQMVGKVLFKQTASGPQAVGVNFGTNKAVNFDVFAKHEVLLAAGSAISPLILEYSGIGLKSVLDQANVTQLLDLPVGINMQDQTTTTVSSRASSAGAGQGQAVFFANFTETFGDYAPQARDLLNTKLDQWAEETVARGGFHNVTALKVQYENYRNWLLDEDVAFAELFMDTEGKINFDLWDLIPFTRGSVHILSSDPYLWQFANDPKFFLNEFDLLGQAAASKLARDLTSQGAMKEYFAGETLPGYNLVQNATLSQWSDYVLQNFRPNWHAVSSCSMMSRELGGVVDATAKVYGTQGLRVIDGSIPPTQVSSHVMTIFYGMALKVADAILDDYAKSA
notes: as for B1
[2]; other: dimer/monomer
  Km: 0.629 ± 0.295 mM
  kcat: 0.000315 s⁻¹
  kcat/Km: 0.5 ± 0.259 M⁻¹ s⁻¹
[2]; other: excluded
  Km: 65.6 ± 14.2 mM
  kcat: 0.00056 s⁻¹
  kcat/Km: 0.00853 ± 0.00215 M⁻¹ s⁻¹
[2]; other: monomer 1
  Km: 8.82 ± 4.87 mM
  kcat: 0.00123 s⁻¹
  kcat/Km: 0.139 ± 0.095 M⁻¹ s⁻¹
[2]; other: monomer 2
  Km: 1.38 ± 0.671 mM
  kcat: 0.00377 s⁻¹
  kcat/Km: 2.73 ± 1.5 M⁻¹ s⁻¹

B3: RbMPO-GGGGGGGG-GOx chimera (Rhodopirellula baltica myeloperoxidase, SEQ ID NO: 10; linker SEQ ID NO: 9; Penicillium amagasakiens glucose oxidase, SEQ ID NO: … (protein)
chain: MLFWSKRTRKHPGRKRRRLRSEQLESRQLLAADFGGYRHNIYDAEDVNDDGRVSAIDALLVINAMTSETSRDENVFTDVNGDGRRSALDALRVINRIERGDVFPIDTSGDEDLNTLLPEMPSEVRSIDGSGNNPNDHLWGSVGQRLIRMAPAAYGDGISTLAGANRPSAREVSNVLSAMNTSQVLNDRGLSAFVYVWGQFIDHDLGLTESDEHGEAIDISVPEGDLWFDPMGSGEAVIPMTRTPIADGTGTSVGNPAQQFNQITAFIDGSMVYGSDAATAERLRTFAGGRLAISDNGLLPMDESGMVIAGDVRASENVGLTAIQTLFVREHNRLADEIFAADPEATDEEIYQRARLVVASLIQSITYNEFLPALLGQRAMDSYRGYDASVNPGIANEFSTAAFRLGHSTLRDEVGFMSNDGRESKDEMELKDAFFHASMLEETGIDSLLKFDASVQAQEIDLAVVDSLRNFLFGPPGAGGLDLVAMNIQRGRDHGLSDYNTTRQAYGLDRVETFDQITGDVELQQKLASLYGTVDNIDLWVGLMAEDHQHDASVGELTGLIIADQFQRTRDGDRFFYKNVLTDSEVESIERSTLADLIERNTSVDGLQENVFFMQVELRGRVILASSIPPNTMPSEVREEEIRGVSGMAIELIDASGKLVDSTVSDQHGNYRFRALSETGDYQVRLSESGEAMDVLVAHGAERIRGLDFIVLAGGGGGGGGYLPAQQIDVQSSLLSDPSKVAGKTYDYIIAGGGLTGLTVAAKLTENPKIKVLVIEKGFYESNDGAIIEDPNAYGQIFGTTVDQNYLTVPLINNRTNNIKAGKGLGGSTLINGDSWTRPDKVQIDSWEKVFGMEGWNWDNMFEYMKKAEAARTPTAAQLAAGHSFNATCHGTNGTVQSGARDNGQPWSPIMKALMNTVSALGVPVQQDFLCGHPRGVSMIMNNLDENQVRVDAARAWLLPNYQRSNLEILTGQMVGKVLFKQTASGPQAVGVNFGTNKAVNFDVFAKHEVLLAAGSAISPLILEYSGIGLKSVLDQANVTQLLDLPVGINMQDQTTTTVSSRASSAGAGQGQAVFFANFTETFGDYAPQARDLLNTKLDQWAEETVARGGFHNVTALKVQYENYRNWLLDEDVAFAELFMDTEGKINFDLWDLIPFTRGSVHILSSDPYLWQFANDPKFFLNEFDLLGQAAASKLARDLTSQGAMKEYFAGETLPGYNLVQNATLSQWSDYVLQNFRPNWHAVSSCSMMSRELGGVVDATAKVYGTQGLRVIDGSIPPTQVSSHVMTIFYGMALKVADAILDDYAKSA
notes: as for B1
[3]; other: dimer/monomer
  Km: 2.06 ± 1.29 mM
  kcat: 0.00155 s⁻¹
  kcat/Km: 0.754 ± 0.545 M⁻¹ s⁻¹
[3]; other: excluded
  Km: 2.76 ± 1.06 mM
  kcat: 0.000102 s⁻¹
  kcat/Km: 0.037 ± 0.017 M⁻¹ s⁻¹
[3]; other: monomer
  Km: 6.196 ± 0.951 mM
  kcat: 0.000512 s⁻¹
  kcat/Km: 0.083 ± 0.015 M⁻¹ s⁻¹
[3]; other: trimer
  Km: 3.61 ± 2.11 mM
  kcat: 0.000589 s⁻¹
  kcat/Km: 0.163 ± 0.129 M⁻¹ s⁻¹
